Columns and labels:
UGT 1A10 = biological target: T1, UGT 1A10 (UniProt Q9HAW8); assay: filter; conditions: 5-BrdU replaces T; apparent photocrosslink KD; plateau 72%
T1 sequence: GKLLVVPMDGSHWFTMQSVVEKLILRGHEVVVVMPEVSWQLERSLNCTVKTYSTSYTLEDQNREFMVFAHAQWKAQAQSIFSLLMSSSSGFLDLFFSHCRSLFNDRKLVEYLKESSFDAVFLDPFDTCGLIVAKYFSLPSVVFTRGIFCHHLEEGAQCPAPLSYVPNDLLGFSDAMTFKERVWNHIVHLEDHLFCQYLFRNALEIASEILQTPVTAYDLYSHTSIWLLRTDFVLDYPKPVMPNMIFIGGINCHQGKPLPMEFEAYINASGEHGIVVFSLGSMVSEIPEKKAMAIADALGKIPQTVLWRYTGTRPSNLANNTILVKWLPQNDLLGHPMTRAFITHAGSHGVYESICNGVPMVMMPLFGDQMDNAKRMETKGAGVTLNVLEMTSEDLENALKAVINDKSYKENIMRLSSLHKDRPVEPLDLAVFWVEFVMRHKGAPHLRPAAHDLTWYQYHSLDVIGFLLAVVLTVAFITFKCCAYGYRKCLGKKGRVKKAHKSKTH

Interleukin-4 = biological target: T2, Interleukin-4 (UniProt P05112); conditions: 5-BrdU replaces T; photocrosslinking rate at 25 nM target; KD printed as ??
T2 sequence: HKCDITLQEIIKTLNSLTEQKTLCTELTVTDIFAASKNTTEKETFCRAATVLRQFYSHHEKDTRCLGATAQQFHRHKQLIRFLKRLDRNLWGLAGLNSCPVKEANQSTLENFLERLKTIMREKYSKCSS

UGT 1A3 = biological target: T3, UGT 1A3 (UniProt P35503); assay: filter; conditions: 5-BrdU replaces T; apparent photocrosslink KD; plateau 70%
T3 sequence: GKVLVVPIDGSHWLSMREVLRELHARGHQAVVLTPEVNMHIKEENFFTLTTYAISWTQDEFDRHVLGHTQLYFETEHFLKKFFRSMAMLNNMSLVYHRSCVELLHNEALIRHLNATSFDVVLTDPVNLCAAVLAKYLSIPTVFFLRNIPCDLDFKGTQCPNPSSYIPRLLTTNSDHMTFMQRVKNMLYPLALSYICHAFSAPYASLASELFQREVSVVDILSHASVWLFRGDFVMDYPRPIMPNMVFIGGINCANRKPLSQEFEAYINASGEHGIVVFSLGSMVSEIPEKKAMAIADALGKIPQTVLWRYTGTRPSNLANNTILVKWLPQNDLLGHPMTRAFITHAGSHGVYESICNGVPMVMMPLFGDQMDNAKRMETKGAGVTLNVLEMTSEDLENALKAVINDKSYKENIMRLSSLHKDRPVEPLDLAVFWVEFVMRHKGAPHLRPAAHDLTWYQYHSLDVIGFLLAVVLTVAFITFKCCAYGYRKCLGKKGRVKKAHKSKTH

“ATATATATGGGAGGACGATGCGGCACCACTTCTTTACCTCACTCTTTCTGCAGCAGACGACGAGCGGGAAAAAAAA [UGT 1A10 pool 140 clone 45]” was tested, and the Kd (UGT 1A10) was 2.1 nM.
For “ATATATATGGGAGGACGATGCGGGCACAGGTTCTATCAACGTTGTCCTGAGTAATTGACCTGCAGACGACGAGCGGGAAAAAAAA [IL-4 pool 012 clone 63]”, the photocrosslinking rate (Interleukin-4) was 0.71 J-1 cm2.
“ATATATATGGGAGGACGATGCGGGCCGACTTTGTCACCGAGTGCATCCGAGGTCAGACGACGAGCGGGAAAAAAAA [UGT 1A3 pool 141 clone 53]” was tested, and the Kd (UGT 1A3) was 3.9 nM.
